Results: patent publication US10280205B2, “Method for treating cancer with an activated T lymphocyte that selectively recognizes a cancer cell consisting of specific peptide” (immatics biotechnologies GmbH, priority 2015, dated 2019)

Target: HLA-A*02:01 (Homo sapiens, UniProt P04439, D140Y/D185E/D98H/E176V/E277Q/G131W/G231S/I119V/I121R/I166T/I218V/L300P/L318F/N151K/N90K/P208A/P217A/Q86G/Q94H/R138H/R169H/T345S)
Assay: MHC binding assay: UV-ligand exchange with beta2m ELISA (exchange yield)
Conditions: binding to HLA-A*02:01, β2m ELISA
Summary of the method: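 Exchange yield reflects how much β2m remains bound, measured by ELISA: streptavidin capture of 100-fold diluted monomers, HRP anti-β2m at 37° C. for 1 h, TMB read at 450 nm. Monomers come from UV cleavage of a conditional HLA-A*02:01 ligand in the presence of the candidate peptide.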

Peptide exchange (MHC class I binding score, peptide exchange yield), “++” (≥20% = ++):
402 (VLFSGALLGL; listed as Homo sapiens) [compound 402], 32 (KLDDLTQDLTV; listed as Homo sapiens) [compound 32], 251 (ALYTGFSILV; listed as Homo sapiens) [compound 251], 376 (AMFESSQNVLL; listed as Homo sapiens) [compound 376], 47 (ILLSVPLLVV; listed as Homo sapiens) [compound 47], 455 (SLLKEPQKVQL; listed as Homo sapiens) [compound 455], 128 (YLFDDPLSAV; listed as Homo sapiens) [compound 128], 355 (SIQQSIERLLV; listed as Homo sapiens) [compound 355], 185 (FLIDDKGYTL; listed as Homo sapiens) [compound 185], 157 (SLNDEVPEV; listed as Homo sapiens) [compound 157], 154 (ALDDGTPAL; listed as Homo sapiens) [compound 154], 494 (ALQPEPIKV; listed as Homo sapiens) [compound 494], 229 (RLPGPLGTV; listed as Homo sapiens) [compound 229], 380 (TLIEDEIATI; listed as Homo sapiens) [compound 380], 379 (IMEGTLTRV; listed as Homo sapiens) [compound 379], 513 (SLWPSPEQL; listed as Homo sapiens) [compound 513], 124 (ALYETELADA; listed as Homo sapiens) [compound 124], 99 (ALVSKGLATV; listed as Homo sapiens) [compound 99], 234 (ALMEDTGRQML; listed as Homo sapiens) [compound 234]

Peptide exchange (MHC class I binding score, peptide exchange yield), “++++” (≥75% = ++++):
89 (YILPTETIYV; listed as Homo sapiens) [compound 89], 52 (FLLAHGLGFLL; listed as Homo sapiens) [compound 52], 168 (KILDADIQL; listed as Homo sapiens) [compound 168], 339 (GLWEIENNPTVKA; listed as Homo sapiens) [compound 339], 177 (YLLPEEYTSTL; listed as Homo sapiens) [compound 177]

Peptide exchange (MHC class I binding score, peptide exchange yield), “+++” (≥50 = +++):
545 (LLADLLHNV; listed as Homo sapiens) [compound 545], 136 (YLADPSNLFVV; listed as Homo sapiens) [compound 136], 110 (FLSQVDFEL; listed as Homo sapiens) [compound 110], 493 (GLLGEKTQDLIGV; listed as Homo sapiens) [compound 493], 519 (GLLHLTLLL; listed as Homo sapiens) [compound 519], 241 (SLVEVNPAYSV; listed as Homo sapiens) [compound 241], 562 (YLEELPEKLKL; listed as Homo sapiens) [compound 562], 543 (GLLPTPITQQASL; listed as Homo sapiens) [compound 543], 98 (LIIDQADIYL; listed as Homo sapiens) [compound 98], 476 (ALMERTGYSMV; listed as Homo sapiens) [compound 476], 254 (TLLAFIMEL; listed as Homo sapiens) [compound 254], 90 (TLLQIIETV; listed as Homo sapiens) [compound 90], 496 (FLVEKQPPQV; listed as Homo sapiens) [compound 496], 525 (VLLEAGEGLVTI; listed as Homo sapiens) [compound 525], 96 (YIFTDNPAAV; listed as Homo sapiens) [compound 96], 22 (IMEENPGIFAV; listed as Homo sapiens) [compound 22], 202 (ALLDQQGSRWTL; listed as Homo sapiens) [compound 202], 601 (SAFPFPVTV; listed as Homo sapiens) [compound 601], 550 (FLYDEIEAEVNL; listed as Homo sapiens) [compound 550], 188 (GLFPVTPEAV; listed as Homo sapiens) [compound 188], 594 (IMLKGDNITL; listed as Homo sapiens) [compound 594], 82 (FLSSVTYNL; listed as Homo sapiens) [compound 82], 394 (LLAVIGGLVYL; listed as Homo sapiens) [compound 394], 243 (LLLNELPSV; listed as Homo sapiens) [compound 243], 623 (YLVEDIQHI; listed as Homo sapiens) [compound 623], 362 (TLYGLSVLL; listed as Homo sapiens) [compound 362], 195 (GLFADLLPRL; listed as Homo sapiens) [compound 195], 369 (GLFPEHLIDV; listed as Homo sapiens) [compound 369], 107 (FLQPVDDTQHL; listed as Homo sapiens) [compound 107], 609 (ALWKQLLEL; listed as Homo sapiens) [compound 609], 40 (TLLVKVFSV; listed as Homo sapiens) [compound 40], 144 (YIMEPSIFNTL; listed as Homo sapiens) [compound 144], 531 (YTLPIASSIRL; listed as Homo sapiens) [compound 531], 584 (ALAEVAAMENV; listed as Homo sapiens) [compound 584], 256 (FLPPEHTIVYI; listed as Homo sapiens) [compound 256], 474 (YLDPALELGPRNV; listed as Homo sapiens) [compound 474], 285 (QLLHVGVTV; listed as Homo sapiens) [compound 285], 345 (VIWKALIHL; listed as Homo sapiens) [compound 345], 147 (SLLEAVSFL; listed as Homo sapiens) [compound 147], 179 (KVLNELYTV; listed as Homo sapiens) [compound 179], 528 (SVAEGRALMSV; listed as Homo sapiens) [compound 528], 240 (ILLEQAFYL; listed as Homo sapiens) [compound 240], 42 (VLLQKIVSA; listed as Homo sapiens) [compound 42]
